The values below come from patent US20090029376.

What all share (experiment): cleavage_in_vitro
Data set [1] has as its target T1, BamHI(E86P) E86P (Bacillus amyloliquefaciens) (UniProt P23940).
T1 sequence: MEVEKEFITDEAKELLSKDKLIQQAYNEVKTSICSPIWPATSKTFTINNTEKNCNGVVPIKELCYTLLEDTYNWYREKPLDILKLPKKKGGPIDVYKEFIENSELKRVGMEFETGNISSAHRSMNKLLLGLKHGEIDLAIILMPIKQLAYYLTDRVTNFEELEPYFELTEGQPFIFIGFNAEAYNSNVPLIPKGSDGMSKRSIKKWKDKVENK
The conditions noted are these: NEB4, 37 C.

The test system of data set [2] is T2, BsmBI (Bacillus stearothermophilus).
T2 sequence: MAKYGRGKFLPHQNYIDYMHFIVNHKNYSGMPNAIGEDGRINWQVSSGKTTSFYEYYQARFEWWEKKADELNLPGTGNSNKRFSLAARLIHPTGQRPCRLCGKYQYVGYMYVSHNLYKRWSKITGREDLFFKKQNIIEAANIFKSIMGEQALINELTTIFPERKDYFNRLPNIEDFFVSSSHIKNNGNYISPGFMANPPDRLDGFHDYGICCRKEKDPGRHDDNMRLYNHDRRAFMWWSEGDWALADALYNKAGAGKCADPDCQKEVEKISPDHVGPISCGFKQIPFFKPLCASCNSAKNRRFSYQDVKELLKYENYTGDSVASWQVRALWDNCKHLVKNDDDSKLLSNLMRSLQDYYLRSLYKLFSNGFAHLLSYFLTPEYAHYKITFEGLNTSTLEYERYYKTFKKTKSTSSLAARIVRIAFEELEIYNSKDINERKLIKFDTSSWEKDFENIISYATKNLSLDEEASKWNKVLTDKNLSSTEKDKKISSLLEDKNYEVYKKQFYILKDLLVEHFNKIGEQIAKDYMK
To be noted: NEB4, 55 C.

Data set [3] deals with T3, BstXI-HF N65A (Bacillus stearothermophilus).
T3 sequence: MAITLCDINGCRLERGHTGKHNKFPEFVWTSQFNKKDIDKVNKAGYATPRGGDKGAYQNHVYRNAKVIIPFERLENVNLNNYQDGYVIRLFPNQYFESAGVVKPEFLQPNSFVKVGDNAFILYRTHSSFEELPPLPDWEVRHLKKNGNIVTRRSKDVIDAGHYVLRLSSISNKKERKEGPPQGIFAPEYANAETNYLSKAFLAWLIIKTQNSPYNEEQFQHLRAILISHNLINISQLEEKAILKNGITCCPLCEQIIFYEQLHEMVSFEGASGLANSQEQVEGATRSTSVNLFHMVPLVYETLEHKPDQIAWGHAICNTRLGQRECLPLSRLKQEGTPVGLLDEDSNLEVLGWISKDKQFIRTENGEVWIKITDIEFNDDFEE
To be noted: NEB4, 55 C.

In data set [4] the target is EcoRI (Escherichia coli RY13) (UniProt P00642). The conditions noted are these: NEB4, 37 C.
In data set [5] the target is EcoRI(K62A) K62A (Escherichia coli RY13) (UniProt P00642). To be noted: NEB4, 37 C.
In data set [6] the target is EcoRI-HF K62E (Escherichia coli RY13) (UniProt P00642). To be noted: NEB4, 37 C.
Data set [7] concerns T4, NcoI-HF A2T/R31A (Nocardia corallina).
T4 sequence: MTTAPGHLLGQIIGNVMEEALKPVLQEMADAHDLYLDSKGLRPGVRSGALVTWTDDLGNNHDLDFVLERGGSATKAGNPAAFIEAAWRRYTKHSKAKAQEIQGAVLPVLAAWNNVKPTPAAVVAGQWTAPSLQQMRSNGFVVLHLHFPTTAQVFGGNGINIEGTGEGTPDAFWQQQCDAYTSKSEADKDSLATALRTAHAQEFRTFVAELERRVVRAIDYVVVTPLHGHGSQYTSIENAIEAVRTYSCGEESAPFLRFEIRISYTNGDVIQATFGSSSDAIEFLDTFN
The conditions noted are these: NEB4, 37 C.

Data set [8] has as its target T5, ScaI-HF H193A/S201F (Streptomyces caespitosus) (UniProt O52691).
T5 sequence: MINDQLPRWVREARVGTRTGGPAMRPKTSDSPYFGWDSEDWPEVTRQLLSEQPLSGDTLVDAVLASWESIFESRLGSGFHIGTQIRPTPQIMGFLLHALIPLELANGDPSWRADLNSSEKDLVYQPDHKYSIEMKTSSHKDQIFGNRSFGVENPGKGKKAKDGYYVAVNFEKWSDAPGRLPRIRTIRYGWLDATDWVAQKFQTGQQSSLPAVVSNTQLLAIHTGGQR
To be noted: NEB2, 37 C.

The subject of data set [9] is T6, SphI (Streptomyces phaeochromogenes).
T6 sequence: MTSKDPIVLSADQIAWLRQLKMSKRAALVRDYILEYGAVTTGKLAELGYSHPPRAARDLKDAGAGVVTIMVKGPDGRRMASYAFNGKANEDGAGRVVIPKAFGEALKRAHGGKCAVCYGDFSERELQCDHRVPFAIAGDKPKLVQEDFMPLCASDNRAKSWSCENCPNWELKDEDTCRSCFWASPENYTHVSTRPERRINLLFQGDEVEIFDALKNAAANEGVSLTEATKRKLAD
To be noted: NEB4, 37 C.

Data set [10] has as its system T7, SphI-HF K100A (Streptomyces phaeochromogenes).
T7 sequence: T6 sequence with K100A
To be noted: NEB4, 37 C.

Data set [11] relates to T8, SspI-HF Y98F (Sphaerotilus species).
T8 sequence: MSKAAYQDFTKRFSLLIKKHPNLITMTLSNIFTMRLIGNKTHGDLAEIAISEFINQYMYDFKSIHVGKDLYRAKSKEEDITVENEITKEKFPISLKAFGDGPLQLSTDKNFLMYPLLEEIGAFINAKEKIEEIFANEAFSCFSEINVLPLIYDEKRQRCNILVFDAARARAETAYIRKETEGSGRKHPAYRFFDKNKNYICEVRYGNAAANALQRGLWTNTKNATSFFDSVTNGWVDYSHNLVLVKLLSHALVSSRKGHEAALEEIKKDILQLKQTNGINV
The conditions noted are these: NEB4, 37 C.

Positions count from the first letter of the chain named. Some results are limits rather than exact numbers.

Regarding lambda phage DNA, the activity (fidelity index) is more than 4000 in [1]; 4 in [2]; more than 250 in data set [3]; 4 in [4]; 32000 in data set [5]; 16000 in [6]. In addition, the activity (fidelity index) in [7] was more than 16000; in data set [8], 120; in data set [9], 16; in data set [10], more than 2000; in data set [11], 500.
